According to US20170283830A1:

Molecular target: CD117 (mast/stem cell growth factor receptor, proto-oncogene c-Kit protein) on CD117+ mouse bone marrow cells (mouse) (UniProt P05532)
Test: cell-based or functional assay

Sequence of UniProt P05532 (P05532 25-979): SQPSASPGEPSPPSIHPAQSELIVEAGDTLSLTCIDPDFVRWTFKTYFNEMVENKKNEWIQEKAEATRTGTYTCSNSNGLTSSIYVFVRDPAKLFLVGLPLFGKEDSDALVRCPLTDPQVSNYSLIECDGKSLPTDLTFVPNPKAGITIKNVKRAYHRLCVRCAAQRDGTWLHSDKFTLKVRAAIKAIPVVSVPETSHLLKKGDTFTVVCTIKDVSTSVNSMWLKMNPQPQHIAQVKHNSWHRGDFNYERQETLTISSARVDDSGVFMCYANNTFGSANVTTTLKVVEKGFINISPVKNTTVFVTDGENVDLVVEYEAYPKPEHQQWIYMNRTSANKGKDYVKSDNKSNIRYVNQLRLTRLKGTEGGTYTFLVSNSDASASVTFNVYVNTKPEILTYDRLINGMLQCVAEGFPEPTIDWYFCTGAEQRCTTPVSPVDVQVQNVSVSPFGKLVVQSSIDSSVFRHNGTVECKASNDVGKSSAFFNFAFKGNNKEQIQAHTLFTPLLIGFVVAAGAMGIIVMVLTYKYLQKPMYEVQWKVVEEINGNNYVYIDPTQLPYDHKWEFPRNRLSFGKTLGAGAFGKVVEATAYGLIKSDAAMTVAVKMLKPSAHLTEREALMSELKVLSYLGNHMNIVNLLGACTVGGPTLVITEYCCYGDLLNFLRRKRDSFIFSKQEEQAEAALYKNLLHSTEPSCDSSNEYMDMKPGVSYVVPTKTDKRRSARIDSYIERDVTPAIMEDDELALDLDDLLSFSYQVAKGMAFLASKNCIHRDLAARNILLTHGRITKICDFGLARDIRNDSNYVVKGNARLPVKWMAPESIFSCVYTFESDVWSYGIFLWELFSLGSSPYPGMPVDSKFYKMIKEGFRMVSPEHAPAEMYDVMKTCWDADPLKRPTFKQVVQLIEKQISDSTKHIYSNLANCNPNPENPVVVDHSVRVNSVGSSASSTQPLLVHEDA

An HDR activity in CD117+ cells (recombination between reporter gene constructs) of 2 fold and a γtcPNA4/donor DNA-mediated gene editing in CD117+ cells (% GFP expressing cells, flow cytometry) of 15% were found for “Recombinant murine SCF, catalog #250-03, PeproTech (from UniProt P20826 26-189) (ligand)” in this work.
